Patent US20090099080A1 (UNIVERSITY OF MASSACHUSETTS, published 2009)

Target: T1, GST (UniProt P08515 1-218 = GST)
T1 construct: Control for the GST fusion baits; also called glutathione S-transferase (control)
Experiment: GST pull down of recombinant CypD, CypD immunoblot

T1 sequence (P08515 whole entry, the tested form may be a part): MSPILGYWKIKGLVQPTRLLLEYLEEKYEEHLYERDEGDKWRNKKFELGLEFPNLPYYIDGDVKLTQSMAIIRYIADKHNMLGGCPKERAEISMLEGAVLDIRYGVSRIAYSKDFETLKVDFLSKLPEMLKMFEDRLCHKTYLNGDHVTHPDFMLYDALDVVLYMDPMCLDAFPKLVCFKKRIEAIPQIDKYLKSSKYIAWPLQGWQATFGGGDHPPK

B1: recombinant CypD (purified, in solution) (enzyme)
chain: not shown
  binding result: no binding
